Measurements reported in patent publication US20070287629A1 (MAX PLANCK GESELLSCHAFT ZUR FOERDERUNG DER WISSENSCHAFTEN E …, published 2007).

Legend:
[1] = target: Tobacco 14-3-3c (Gene bank AAC49892, amino acids 1-260 with an N-terminal His-tag) (Nicotiana tabacum (tobacco)) (UniProt P93343); experiment: isothermal titration calorimetry, peptide titrated into 14-3-3c alone, 35 °C
[2] = target: Tobacco 14-3-3c (Gene bank AAC49892, amino acids 1-260 with an N-terminal His-tag) (Nicotiana tabacum (tobacco)) (UniProt P93343); experiment: ITC; peptide into unliganded 14-3-3c
[3] = target: Tobacco 14-3-3c (Gene bank AAC49892, amino acids 1-260 with an N-terminal His-tag) (Nicotiana tabacum (tobacco)) (UniProt P93343); experiment: ITC; phosphopeptide (0.5 mM) titrated into 14-3-3c (0.05 mM), 25 mM HEPES pH 6.5, 35 °C, single-site fit; peptide to unliganded 14-3-3c, no fusicoccin; ITC, pH 6.5, 35 C
[4] = target: 14-3-3-FC complex (tobacco 14-3-3c saturated with fusicoccin) (Nicotiana tabacum (tobacco)) (UniProt P93343)
[5] = target: 14-3-3-FC complex (tobacco 14-3-3c saturated with fusicoccin) (Nicotiana tabacum (tobacco)) (UniProt P93343); experiment: ITC; peptide into the 14-3-3-FC complex
[6] = target: 14-3-3-FC complex (tobacco 14-3-3c saturated with fusicoccin) (Nicotiana tabacum (tobacco)) (UniProt P93343); experiment: isothermal titration calorimetry, […]
[7] = target: the molecule itself; experiment: X-ray crystal structure (homodimer)
Experimental: Tobacco 14-3-3c (Gene bank AAC49892, amino acids 1-260 with an N-terminal His-tag) was expressed recombinantly in E.coli and purified via standard procedures. Fusicoccin was purchased from Sigma. Phosphopeptides were synthesized by Biosyntan (Berlin). […] They were soaked with ligands for 4 hours (fusicoccin) or 20 minutes (peptide) in precipitant solution supplemented to 30% PEG 400 and cryoprotectant (precipitant solution supplemented to 35% PEG 400, 8% Isopropanol) prior to freezing in liquid N₂.

Molecule: phosphopeptide Gln-Ser-Tyr-pThr-Val (QSYpTV), C-terminal end of PMA2, a H+-ATPase isoform from N. plumbaginifolia
- ΔG [1]: -8.3 kcal/mol
- -TΔS [2]: 1.7 kcal/mol
- ΔH [2]: -10 kcal/mol
- Kd [3]: 2500 nM
- fold increase of binding affinity by fusicoccin [4]: 93 fold
- -TΔS [5]: 0.4 kcal/mol
- ΔH [5]: -11.8 kcal/mol
- Kd [6]: 27 nM
- ΔG [6]: -11.4 kcal/mol

B1: Tobacco 14-3-3c (Gene bank AAC49892, amino acids 1-260 with an N-terminal His-tag) (other)
chain: MAVAPTAREENVYMAKLAEQAERYEEMVEFMEKVSNSLGSEELTVEERNLLSVAYKNVIGARRASWRIISSIEQKEESRGNEEHVNSIREYRSKIENELSKICDGILKLLDAKLIPSAASGDSKVFYLKMKGDYHRYLAEFKTGAERKEAAESTLTAYKAAQDIATTELAPTHPIRLGLALNFSVFYYEILNSPDRACNLAKQAFDEAIAELDTLGEESYKDSTLIMQLLRDNLTLWTSDMQDDGADEIKEDPKPDEAKN
notes: Expressed in E. coli; one monomer in the asymmetric unit; also called plant 14-3-3c; Nicotiana tabacum 14-3-3 isoform c; not shown: N-terminal His-tag
- binding result [7]: binds
